Reference: publication PMC8260561 (Cell Reports, 2021)

Biological target: S1-mFc (SARS-CoV-2 S1 subunit, fusion protein with murine Fc part) (SARS-CoV-2 Wuhan-Hu-1 (MN908947), UniProt P0DTC2)
Experiment: ELISA

B1: STE90-C11 IgG (human IgG1 with silenced Fc) (antibody, V domains shown)
VH: QVQLVESGGGLVQPGGSLRLSCAASGLTVSSNYMSWVRQAPGKGLEWVSVIYSGGSTYYADSVKGRFTISRDDSKNTLYLQMNSLRAEDTAVYYCARDVADAFDIWGQGTMVTVSS
VL: DIVMTQSPSFLSASVGDRVTITCRASQGISSYLAWYQQKPGKAPKLLIYAASTLQSGVPSRFSGSGSGTEFTLTISSLQPEDFATYYCQQLNSYPPFTFGPGTKVDIK
B1 showed an EC50 of 0.2 nM.
